According to US20150023988A1:
Values joined by “and” are separate entries in the source; they are usually repeats but may differ in a detail not shown here. Equal entries are not always repeated. Where two headings read alike, the source gives them in different places.

Key:
[1] = target: human voltage-gated sodium channel Nav1.5 (human) (UniProt Q14524); test: cell-based or functional assay
[2] = target: human voltage-gated sodium channel Nav1.7 (human) (UniProt Q15858); test: cell-based or functional assay
[3] = target: human voltage-gated sodium channel Nav1.4 (human) (UniProt P35499); test: cell-based or functional assay
[4] = target: TTX-sensitive Nav channels in mouse DRG neuron; test: cell-based or functional assay
[5] = target: human voltage-gated sodium channel Nav1.5 (human) (UniProt Q14524); test: cell-based or functional assay; remark: listed apart in the source
[6] = target: human voltage-gated sodium channel Nav1.7 (human) (UniProt Q15858); test: cell-based or functional assay; remark: listed apart in the source
[7] = target: human voltage-gated sodium channel Nav1.4 (human) (UniProt P35499); test: cell-based or functional assay; remark: listed apart in the source
[8] = target: TTX-resistant Nav channels in mouse DRG neurons; test: cell-based or functional assay
[9] = target: human voltage-gated sodium channel Nav1.8 (human) (UniProt Q9Y5Y9); test: cell-based or functional assay
human voltage-gated sodium channel Nav1.8 (human), sequence (Q9Y5Y9 whole entry): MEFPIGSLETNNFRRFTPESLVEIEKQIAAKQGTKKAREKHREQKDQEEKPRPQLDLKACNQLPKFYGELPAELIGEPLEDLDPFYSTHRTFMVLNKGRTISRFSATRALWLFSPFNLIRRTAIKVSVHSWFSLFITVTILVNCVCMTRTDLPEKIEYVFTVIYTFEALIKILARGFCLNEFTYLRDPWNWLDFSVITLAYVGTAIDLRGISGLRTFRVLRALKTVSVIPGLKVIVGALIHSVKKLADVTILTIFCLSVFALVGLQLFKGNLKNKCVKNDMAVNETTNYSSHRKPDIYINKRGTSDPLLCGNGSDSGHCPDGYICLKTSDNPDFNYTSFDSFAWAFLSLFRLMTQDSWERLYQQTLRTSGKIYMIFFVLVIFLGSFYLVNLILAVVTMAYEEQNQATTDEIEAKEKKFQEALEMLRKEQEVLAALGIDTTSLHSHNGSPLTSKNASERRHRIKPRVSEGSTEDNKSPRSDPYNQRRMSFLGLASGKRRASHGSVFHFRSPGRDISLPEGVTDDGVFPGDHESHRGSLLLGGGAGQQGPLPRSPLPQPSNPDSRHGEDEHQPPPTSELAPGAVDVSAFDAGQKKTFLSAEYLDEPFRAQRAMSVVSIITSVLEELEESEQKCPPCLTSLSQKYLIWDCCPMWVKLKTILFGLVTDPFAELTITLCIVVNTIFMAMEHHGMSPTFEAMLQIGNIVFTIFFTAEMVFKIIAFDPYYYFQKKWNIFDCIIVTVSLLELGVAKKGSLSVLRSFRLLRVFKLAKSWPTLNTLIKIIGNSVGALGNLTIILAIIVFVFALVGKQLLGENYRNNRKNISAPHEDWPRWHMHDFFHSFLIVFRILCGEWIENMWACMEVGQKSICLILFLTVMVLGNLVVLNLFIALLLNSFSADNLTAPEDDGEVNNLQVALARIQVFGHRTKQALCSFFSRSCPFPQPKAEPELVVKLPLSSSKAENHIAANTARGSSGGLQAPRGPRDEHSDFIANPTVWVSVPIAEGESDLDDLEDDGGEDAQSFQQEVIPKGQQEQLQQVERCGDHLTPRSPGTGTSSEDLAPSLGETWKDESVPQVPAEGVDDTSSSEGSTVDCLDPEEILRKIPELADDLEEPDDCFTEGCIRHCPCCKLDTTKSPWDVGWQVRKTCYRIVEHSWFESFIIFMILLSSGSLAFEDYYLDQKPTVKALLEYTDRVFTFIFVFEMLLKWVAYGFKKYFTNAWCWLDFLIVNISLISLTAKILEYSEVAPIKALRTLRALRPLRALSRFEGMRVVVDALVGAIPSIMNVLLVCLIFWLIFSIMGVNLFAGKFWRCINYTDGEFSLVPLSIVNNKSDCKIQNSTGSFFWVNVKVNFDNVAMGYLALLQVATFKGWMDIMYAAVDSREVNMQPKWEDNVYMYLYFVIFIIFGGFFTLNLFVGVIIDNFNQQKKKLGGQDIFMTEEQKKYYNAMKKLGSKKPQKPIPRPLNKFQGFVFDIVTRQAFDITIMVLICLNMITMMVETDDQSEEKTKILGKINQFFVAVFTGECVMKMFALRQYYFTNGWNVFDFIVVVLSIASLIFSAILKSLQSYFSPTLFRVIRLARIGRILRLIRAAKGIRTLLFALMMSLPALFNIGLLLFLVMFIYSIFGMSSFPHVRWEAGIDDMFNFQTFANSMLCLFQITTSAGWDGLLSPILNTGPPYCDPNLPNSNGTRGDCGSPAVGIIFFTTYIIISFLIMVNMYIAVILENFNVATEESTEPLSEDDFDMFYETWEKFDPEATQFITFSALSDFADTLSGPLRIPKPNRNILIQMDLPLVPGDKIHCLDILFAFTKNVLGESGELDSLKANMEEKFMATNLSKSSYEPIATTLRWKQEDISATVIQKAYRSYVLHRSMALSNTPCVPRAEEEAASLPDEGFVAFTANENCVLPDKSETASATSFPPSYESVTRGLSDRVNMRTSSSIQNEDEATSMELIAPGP

[10] = target: TTX-sensitive Nav channels in mouse DRG neurons; test: cell-based or functional assay
[11] = target: human voltage-gated sodium channel Nav1.3 (human) (UniProt Q9NY46); test: cell-based or functional assay
[12] = target: human voltage-gated sodium channel Nav1.3 (human) (UniProt Q9NY46); test: cell-based or functional assay; remark: listed apart in the source
[13] = target: human voltage-gated sodium channel Nav1.8 (human), Q9Y5Y9; details: chains peptide; modification not given

human voltage-gated sodium channel Nav1.5 (human), sequence (Q14524 whole entry): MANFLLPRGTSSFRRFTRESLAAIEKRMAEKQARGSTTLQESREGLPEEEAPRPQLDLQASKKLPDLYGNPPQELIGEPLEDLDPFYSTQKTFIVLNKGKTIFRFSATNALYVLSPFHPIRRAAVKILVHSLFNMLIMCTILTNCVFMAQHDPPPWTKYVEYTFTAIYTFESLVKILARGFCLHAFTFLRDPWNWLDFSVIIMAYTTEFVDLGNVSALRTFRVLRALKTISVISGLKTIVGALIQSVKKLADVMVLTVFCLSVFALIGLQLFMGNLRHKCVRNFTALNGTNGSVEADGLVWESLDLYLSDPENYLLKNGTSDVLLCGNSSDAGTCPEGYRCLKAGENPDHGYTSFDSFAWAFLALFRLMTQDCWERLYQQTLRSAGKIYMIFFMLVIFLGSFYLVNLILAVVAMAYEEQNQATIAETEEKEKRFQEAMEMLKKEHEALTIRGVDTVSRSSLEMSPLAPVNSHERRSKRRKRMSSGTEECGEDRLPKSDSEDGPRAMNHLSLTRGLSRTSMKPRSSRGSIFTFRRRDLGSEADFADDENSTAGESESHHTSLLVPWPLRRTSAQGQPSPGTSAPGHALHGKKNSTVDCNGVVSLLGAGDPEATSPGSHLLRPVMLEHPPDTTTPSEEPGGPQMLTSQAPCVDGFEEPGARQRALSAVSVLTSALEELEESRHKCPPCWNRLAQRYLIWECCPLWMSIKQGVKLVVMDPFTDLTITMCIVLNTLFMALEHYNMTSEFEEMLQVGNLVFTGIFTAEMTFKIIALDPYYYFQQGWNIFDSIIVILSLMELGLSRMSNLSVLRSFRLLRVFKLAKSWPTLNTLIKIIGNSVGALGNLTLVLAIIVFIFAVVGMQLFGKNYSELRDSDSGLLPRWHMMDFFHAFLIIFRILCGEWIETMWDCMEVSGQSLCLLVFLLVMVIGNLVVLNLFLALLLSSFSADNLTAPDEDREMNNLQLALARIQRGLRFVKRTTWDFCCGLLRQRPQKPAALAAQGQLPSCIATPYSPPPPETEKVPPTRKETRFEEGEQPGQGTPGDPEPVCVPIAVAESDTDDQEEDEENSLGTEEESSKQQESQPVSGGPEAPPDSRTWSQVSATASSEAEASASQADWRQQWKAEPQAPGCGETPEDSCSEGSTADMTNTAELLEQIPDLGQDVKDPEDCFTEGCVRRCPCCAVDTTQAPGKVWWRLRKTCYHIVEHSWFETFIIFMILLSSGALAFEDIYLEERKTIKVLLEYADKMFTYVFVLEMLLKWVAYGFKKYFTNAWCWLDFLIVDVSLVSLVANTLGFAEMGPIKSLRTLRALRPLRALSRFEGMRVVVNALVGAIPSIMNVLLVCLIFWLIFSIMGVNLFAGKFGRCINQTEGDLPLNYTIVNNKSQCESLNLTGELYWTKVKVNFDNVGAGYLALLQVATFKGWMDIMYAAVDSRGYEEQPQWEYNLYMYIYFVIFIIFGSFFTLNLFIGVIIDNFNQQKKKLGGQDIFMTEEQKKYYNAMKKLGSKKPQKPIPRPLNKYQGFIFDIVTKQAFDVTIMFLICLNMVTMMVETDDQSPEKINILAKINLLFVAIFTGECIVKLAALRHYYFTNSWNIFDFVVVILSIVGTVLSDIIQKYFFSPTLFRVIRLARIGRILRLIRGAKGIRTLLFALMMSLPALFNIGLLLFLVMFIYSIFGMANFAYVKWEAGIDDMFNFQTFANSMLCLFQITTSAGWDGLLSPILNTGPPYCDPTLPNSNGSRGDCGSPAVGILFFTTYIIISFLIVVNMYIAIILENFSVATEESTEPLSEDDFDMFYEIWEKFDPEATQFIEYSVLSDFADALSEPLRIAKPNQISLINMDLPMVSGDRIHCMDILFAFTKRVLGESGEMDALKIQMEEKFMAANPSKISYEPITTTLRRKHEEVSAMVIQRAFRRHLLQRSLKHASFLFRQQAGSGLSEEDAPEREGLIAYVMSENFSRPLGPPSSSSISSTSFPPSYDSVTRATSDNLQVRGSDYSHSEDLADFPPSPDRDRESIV

“Atz(NPEG10)-[Nle6]JzTx-V(1-29) (peptide)” was tested, and the Nav1.5/Nav1.7 [1] was 629 fold, the PX hNav1.5 Tonic IC50 [1] was 3770 nM and the PX hNav1.7 Tonic IC50 [2] was 6 nM. For the same molecule, the Nav1.4/Nav1.7 [3] was 1 fold and the PX hNav1.4 Tonic IC50 [3] was 8 nM.

With “Atz(PEG11-benzylthioacetamide)-[Nle6]JzTx-V(1-29) (peptide)” the Nav1.5/Nav1.7 [1] was 1420 fold, the PX hNav1.5 Tonic IC50 [1] was 1980 nM and the PX hNav1.7 Tonic IC50 [2] was 1.4 nM. It also gave a Nav1.4/Nav1.7 [3] of 9 fold and a PX hNav1.4 Tonic IC50 [3] of 13 nM.

In the case of “Bis-{Atz(PEG23*)-[Nle6]JzTx-V(1-29)}-5-((2-(benzylthio)acetamido)methyl)isophthalamide (peptide)”, the PX hNav1.5 Tonic IC50 [1] is reported as 720 nM and 1180 nM and the Nav1.4/Nav1.7 [3] is reported as 5 fold and 3 fold.

“CyA-[Nle6,Lys(Pra)14,Glu28]JzTx-V(1-29) (peptide)” was tested, and the fold loss of potency against JzTx-V on TTX-sensitive current, mouse DRG neurons [4] was 3 fold.

In the case of GpTx-1 (peptide), the Nav1.7 whole cell patch clamp [WCPC] IC50 [2] is reported as 3 nM.

JzTx-45 (peptide) gave a PX hNav1.5 Tonic IC50 [1] of 7460 nM, a PX hNav1.7 Tonic IC50 [2] of 122 nM and a PX hNav1.4 Tonic IC50 [3] of 321 nM.

Work on JzTx-V(1-29) (peptide) yielded an IC50 (IonWorks Quattro) [5] greater than 7000 nM, an IC50 (IonWorks Quattro) [6] of 40 nM and an IC50 (IonWorks Quattro) [7] of 200 nM. The 1.x/1.7, fully non-inactivated [1] was 6230 fold, the 1.x/1.7, partially inactivated [1] was 2640 fold and the IC50 (IonWorks Quattro) [1] was 7200 nM. For the same molecule, the Mean IC50, fully non-inactivated (WCPC) [1] was 882 nM, the Mean IC50, partially inactivated (WCPC) [1] was 426 nM and the PX hNav1.5 Tonic IC50 [1] was 2210 nM and 3250 nM and 1600 nM. The Mean IC50, fully non-inactivated (WCPC) [8] was greater than 1000 nM, the Mean IC50, partially inactivated (WCPC) [8] was greater than 1000 nM and the 1.x/1.7, fully non-inactivated [9] was 5720 fold. The 1.x/1.7, partially inactivated [9] was 3280 fold, the Mean IC50, fully non-inactivated (WCPC) [9] was 810 nM and the Mean IC50, partially inactivated (WCPC) [9] was 530 nM. It also gave an IC50 (IonWorks Quattro) [2] of 20 nM, a Mean IC50, fully non-inactivated (WCPC) [2] of 0.141 nM and a Mean IC50, partially inactivated (WCPC) [2] of 0.162 nM. The 1.x/1.7, fully non-inactivated [10] was 530 fold, the 1.x/1.7, partially inactivated [10] was 111 fold and the Mean IC50, fully non-inactivated (WCPC) [10] was 75 nM. The Mean IC50, partially inactivated (WCPC) [10] was 18 nM, the PX hNav1.4 Tonic IC50 [3] was 3 nM and 2 nM and the average IC50 against hNav1.4, PX assay format [3] was 2 nM.

For Pra-[Nle6]JzTx-V(1-29) (peptide), the fold potency over JzTx-V on TTX-sensitive current, mouse DRG neurons [4] was 3 fold, the fold improvement in hNav1.7 potency over wild type JzTx-V, WCPC [2] was 190 fold and the fold potency against hNav1.7 over wild type JzTx-V(1-29), WCPC [2] was 200 fold.

With [1-Nal7]JzTx-V(1-29) (peptide) the PX hNav1.5 Tonic IC50 [1] was 1420 nM, the PX hNav1.7 Tonic IC50 [2] was 0.4 nM and the PX hNav1.4 Tonic IC50 [3] was 0.9 nM.

Molecule [Abu20]JzTx-V(1-29) (peptide) has an IC50 (IonWorks Quattro) [1] of 10600 nM, an IC50 (IonWorks Quattro) [11] of 970 nM and an IC50 (IonWorks Quattro) [2] of 50 nM. For the same molecule, the IC50 (IonWorks Quattro) [3] was 900 nM and the Nav1.4/Nav1.7 (ratio of IC50s) [3] was 19.

Work on [Cit20]JzTx-V(1-29) (peptide) yielded an IC50 (IonWorks Quattro) [1] of 6800 nM, an IC50 (IonWorks Quattro) [11] of 350 nM and an IC50 (IonWorks Quattro) [2] of 40 nM. It also gave an IC50 (IonWorks Quattro) [3] of 500 nM and a Nav1.4/Nav1.7 (ratio of IC50s) [3] of 15.

In the case of [Cpa20]JzTx-V(1-29) (peptide), the IC50 (IonWorks Quattro) [1] is reported as 14200 nM, the IC50 (IonWorks Quattro) [11] is reported as greater than 5000 nM and the IC50 (IonWorks Quattro) [2] is reported as 210 nM. It also gave an IC50 (IonWorks Quattro) [3] greater than 5000 nM and a Nav1.4/Nav1.7 (ratio of IC50s) [3] of 24.

[Nle6]JzTx-V(1-29) (peptide) showed an IC50 (IonWorks Quattro) [5] greater than 5000 nM, an IC50 (IonWorks Quattro) [12] greater than 5000 nM and an IC50 (IonWorks Quattro) [6] greater than 5000 nM. The IC50 (IonWorks Quattro) [7] was greater than 5000 nM and the PX hNav1.7 Tonic IC50 [2] was 0.586 nM.

In the case of [Nva20]JzTx-V(1-29) (peptide), the IC50 (IonWorks Quattro) [1] is reported as 10400 nM, the IC50 (IonWorks Quattro) [11] is reported as greater than 5000 nM and the IC50 (IonWorks Quattro) [2] is reported as 170 nM. The IC50 (IonWorks Quattro) [3] was 3100 nM and the Nav1.4/Nav1.7 (ratio of IC50s) [3] was 19.

Work on “[Phe6,Atz(2 kDa EtO-PEG*-{[Phe6,Atz13*]GpTx-1(1-34)})13]GpTx-1(1-34) (peptide)” yielded a Nav1.7 WCPC IC50 [2] of 0.58 nM.

In the case of YCQKWMWTCDSKRACCEGLRCKLWCRKII [JzTx-V(1-29)], the IC50 [13] is reported as 630 nM and 430 nM.
